Experimental data reported in the DeepSol protein solubility set.

assay: soluble on expression in E. coli; label from the status in PepcDB or PDB records

Sequence	soluble on expression in E. coli
MGSDKIHHHHHHMTTIPSTAEAKLEMLTTINRAIAGSRPEALPPYPVPAPLSRAEILHQFEDRILDYGAAYTHVSAAELPGAIAKALGNARRVIVPAGIPAPWLTVGMDVLRDEPPLSHAELDRADAVLTGCAVAISETGTIILDHRADQGRRALSLIPDFHICVVREDQIVQTVREGVEAVAASVREGRPLTWLSGGSATSDIELVRVEGVHGPRRLQVIVVG	soluble
MGSDKIHHHHHHMTTLDRKIDFTVILSVTKANPNGDPLNGNRPRQNYDGYGEISDVAIKRKIRNRLQDMGESIFVQSNDRNLDGYASLRDRAEANDTIKKLMKTKNASDQVAAEACATWMDVRAFGQVFAFKGDKAGGVSVGVRGPVSIHTATSVAPIDVTSMQITKSVNSESGKERGSDTMGMKHRVDHGVYVFNGSINTQLAEKTNFTQEDAEKFKLALVSLFENDASSARPEGSMEVHKVYWWEHDSKLGRFSSAKVHRAVSVQALTDEPKSFLDYEIKVDALEGFTPEILDGL	not soluble
MGSDKIHHHHHHMTTSYAKIEITGTLTVLTGLQIGAGDGFSAIGAVDKPVVRDPLSRLPMIPGTSLKGKVRTLLSRQYGADTETFYRKPNEDHAHIRRLFGDTEEYMTGRLVFRDTKLTNKDDLEARGAKTLTEVKFENAINRVTAKANLRQMERVIPGSEFAFSLVYEVSFGTPGEEQKASLPSSDEIIEDFNAIARGLKLLELDYLGGSGTRGYGQVKFSNLKARAAVGALDGSLLEKLNHELAAV	not soluble
MGSDKIHHHHHHMTTTSPDISRFGPIGLVVIQSTSLCNLDCSYCYLPDRKSRKIFDLELLPLLMQRIFESPFFGEELSLVWHAGEPLTLPCSYYDRATQLINEAVEQWTNGTVHVEQHVQTNATLINDAWCECFRRNKIIVGISVDGPKDIHDANRCFGNGEGSHVHSMRGIEALKRNKIPFHAIAVVTATAMDHPNEMYQFFRDNEIHSVGFNVEEQEGEHTSSSMQGYEREEQYRQFLESFWQLSEQDGFPVVLREFDQVISLIRENRRLNQNELNRPYSILSVDWQGNFSTFDPELLSVSSKLYGTFDLGSIRNISLMEAAKTERFQTLWKDMLSGVKRCEKECNYFGFCGGGMGSNKFWEHGSLNCSETNACRFNNKIPVDVLLDRFKSSPPIDNETPF	not soluble
MGSDKIHHHHHHMTVDSPILTDTLVVGGGQAGIAMSEHLTGQGVPHIVLERDRIAQRWRTGRWDSLVANGPAWHDRFPGLEFEGLDPDGFASKDAVADYLEAYARKFNAPIRTGVEVVRAERNGGRYGFTVETSAGTYEAQRIVVATGPFQRPVIPAIAPRDPALTQIHSADYRNPGQLPEGAVLVIGAGSSGVQIADELQRAGREVYLSVGPHDRPPRRYRGRDFCWWLGVLGLWDQETVQPGREHVTIAVSGTDGGRTIEFRALAHQGITLVGVTKSFRDGVVAFENDLAENVARGDANHFALLDAADAYIARNGLSLPDEPQARRVPPDPACMTEPILQLDLAAANVTSIIWATGYAAEYGWLNVDAFDANGKPRHQRGVSSEPGVYFLGLPWLSRRGSAFLWGVWHDAKHIAGHIAMQRNYLSYPDFGQSQQ	not soluble
MGSDKIHHHHHHMTVEPLHILHLISTSGLFGAERVLLELASQSRSLGMHVTVAALKNSRNPNTELAEAARGAGLPTLVVPCGGRFDAGVVGILTEEIRKSGTQIIHSHNYKSNYYARQAAELSGARWIVTNHGRRAGFKLFLYALLDAMLVRKADRVVAVSPKIADRLAVLGIGRDGLSVIDNGVDFSRFESLPTKADAGNVLGVAGSSYVIGTVGALTEEKGHRHLLQAVKSVRKSIPNVVCVVVGDGPERRRLEQLAREEGIEQTAIFTGKRDDVPSILPRFDLFVLPSLSEGLPMALLEAQAAKVPAIATNVGAIATVINNGVTGVVVSPGDVPALAEAIIRSHDEADKARCMALKGYERVKVHYSADTMAQRYIEIYRGMIGAGGAIG	not soluble
MGSDKIHHHHHHMTVLQLPIIDISGLTCQRNNSSDVVAQQIKQACQDYGFFYIVGHGVDEQLQTQLEHLSQEFFAQDQETKLKISMALGGRAWRGYFPVGNELTSGRPDLKEGIYFGSELKDNHPLVKAGTPMHGRNLFPSNIPQFRETVLEYIDSMTKLGHILMAGIALSLDLDKSYFAERYTKDPLILFRIFNYPPNLGSQSEWGVGEHTDYGVLTILKQDNIGGLQVKSKSGWIDAPPIPGSFVCNIGDMLDRMTRGLYRSTPHRVRNLSTSNRLSFPFFFDPNFNVEVKPIDLKDVVVKDDQSDRWDKASVHEFRGTYGDYLLKKVSKVFPELRQKVL	not soluble
MGSDKIHHHHHHMTVWRFKKSQKGLVGVDITSATVKLIELESSGAGHRIASYAVRPLHEGAVVERRIRDLDEVANTLTRAVEHARPHSRRAVAAVPASAAITKTLTYPASLTDDEIEARIQLESERHIPFPLNEVAFDFQRLGLNARYPDQQDILLVACRLQDVDRLADVLRRAGLEPAAVDVETFAMERAAGELLLGQAASQPDDECVALVDIGANMNAFHVLIDGRIAYTRDNVLGGRHLTEEIRKRYGLSLEEAGLAKKRGGLPEDYELEVLTPYIDMLIQQVGRSLQLYYTSGKPRDIQRLVLAGGSSVIPGLRERLAAQSGLEVVMANPFSRMRVASRVDVQALASDAPAMLTACGLAMRGRR	not soluble
MGSDKIHHHHHHMTWLPLNPIPLKDRVSMIFLQYGQIDVIDGAFVLIDKTGIRTHIPVGSVACIMLEPGTRVSHAAVRLAAQVGTLLVWVGEAGVRVYASGQPGGARSDKLLYQAKLALDEDLRLKVVRKMFELRFGEPAPARRSVEQLRGIEGSRVRATYALLAKQYGVTWNGRRYDPKDWEKGDTINQCISAATSCLYGVTEAAILAAGYAPAIGFVHTGKPLSFVYDIADIIKFDTVVPKAFEIARRNPGEPDREVRLACRDIFRSSKTLAKLIPLIEDVLAAGEIQPPAPPEDAQPVAIPLPVSLGDAGHRSS	not soluble
MGSDKIHHHHHHMTWVGVVDAGRHVEATMKLELGFDPRDLLRKLGPGNSIAKFAKNQTIFAQGDEADSVYLLLQGRIKVVVLSAQGKEAATGMVAPGQFFGDGCLVGEATRTTTTIAMQDCLVAAIPSTRLIETLRAQPDFAELFVRHLLLRNRRIEEDLLDQLLNCSEKRLARLLLRLADFEEGGEPQPIAPHISQETLAEMIGTTRSRVSYFMNKFRKLGLISYDRTIEVHPGRLSAVLHDRAEARG	not soluble
MGSDKIHHHHHHMTYDFLIIGGGIAGTSAGAALSRLGTTCLLEAESALAYHASGRSAALFEPNYGHPVTVDLSHASATALRTLGGGVLSPRGLLILAGPGEDAALARDIKTMDLAEISIADAQDMIPILNADHITRAAHHAAAWDIDTDRMVQHYARQIRTNGAVETGATVLGLTKTPQGWTVETRDHSFHARIIVNAAGAWADDIARMAGIAPIGLTPKRRSMARMPAPRGHDVSAWPMIIGAGESWYAKPDAGAWLVSPAEEDPAAPHDAYADDMVLAEGIARYQPFVTEEVTRVTSSWAGLRTFAPDRCLVIGPDRTDPSVLWFAGQGGYGFQTAPAASQLLADLVSGAPSTLDPATVKALSPSRF	not soluble
MGSDKIHHHHHHMVATENRMLMEIAAEISAREATLGFQEVKTKSRSAGLTAAFDIASVFFSSGCNVVVAFDRFASNWSDHSDHVDYAAQVAGFGASMLAYTVRRGQFDTAVRDIRDIKSEVDIPILLHDPIIDPYQIHEARVMGIDALQFPVWAMEQARLESLVDRTESLGMTAIVSVRNHEEAHRAVDAGATVVAIDITGYTGSLTLPEAFSGITQFMPKEVARIVLGGCSSPKELMRFARHSADAIFVPHADLATTKSLVTAGMHPACPSR	not soluble
MGSDKIHHHHHHMVDGMKHLILKVTNRCNLNCIYCYANNKNNKDMDFKTAKNAIDYLLNLDNQIKIQFTGGEPLLNFNLIEKIVDYCNDNYSNCNIQYAIQTNATLINEKIAEKIKELDIKVGISIDGLEINDILRPYKNGKPSTLDTLKGMYILKSYNIPFGITTVVTNKNLPYLEEFVKYLIAFGVKSISFDLLKPKKKEHLTLMPNIEEFNKLLNKLGRYPIYIKNLQKRPKDKYCYLNSGDLLFVNEFGDIYLCPTLEGLSCLGNINDKNKIKLPKVKSKGCYAREFLIKTFKK	not soluble
MGSDKIHHHHHHMVHGVPCFVAHRGYPALYPENSLVGIRAAVQAGARYVEIDIQLSRQLTPYLCHDDNLKRLTGRNAYLTRLKDDEIDTLTVSCPDVTCSSGTEPAPIPRLAEFCRYLAQHPQVTTFVEIKSESIARFGLSKTMDAILPVIDVVHTQCVLISFDWELIALIKSHQMYKTGWIIEHWTDEQSAMAARLQPDYLFSSIRCLPEKLDQLWPGPWQWVIYTVDDYATALGYAEAGITLIETDTISTLLAP	not soluble
MGSDKIHHHHHHMVIENAMNIQFVLKDFSTFGGVERIQYNLAKKFKNDGHNVSFYILNGDSVALDTSHEFIIHKGSKSGFITFLFEIIKLRNNIYKNRIDVVIAAKEQANIAAFFATIFTKVSTIYTRHSALNVSEQRINERSVLLIYSLLTLSKGKVVTVSHDLKYSLLKSLPWGKDKIHVCPNPVLTESIYLKSLQPITDFKLPLSYICSVGRLTRTKGFDVLIQAYKQCITKELNFPDLVIAGSGEEYASLVKLTQELNVADKVHFLGHIDNPYVLMKNSSGFVLSSRNEGLPTVLIEAIALGTNVVSTDCLTGPREILDGGRIGKLVPVEDVRSLAEAMLTLPLHKLSESEIREMDRYSLEQSAIAYFKLFTKKSH	not soluble
MGSDKIHHHHHHMVLMKKLMMKGNEAIAESAIRAGCRLYFAYPITPQSEIAEYMARRLPEVGGVFLQTESEIATVNMVYGAACTGKRVMTSTSSPGFSLMQEGISYIAGAELPCVFVDVVRGGPGLGNIQPSQGDYFQAVKGGGHGDYRLIVLAPSTLQEAVDLTQLAFDLADRYRNPVLILADGMIGQMMEPVELPEMRDLSTLPDHSDWALRGARNREPHRIAAFNIDPVGLEKMNKRLQEKYRLIEASEQRWEEYRVDGAEYLMVGYGTMGRILKSVVDSLREEGIPAGLFRPVTLWPFPKRRLKELAKKVQLIFVVEMSSGQMVEDVQISVEGKVPVHFYGRMGGVVPTPEEILFAFKEVRKWK	not soluble
MGSDKIHHHHHHMVMEYELRTPLVKDQILKLKVGDVVYITGEIFTARDEAHARALEWMEEGKELPFSFDKGVVYHCGPLVKKNDEWRVVSAGPTTSARMNPFTPKILEKVECMGIIGKGGMSEEVVEAMRGKAAYFAFTGGAGALAAMSIKKVKGVVWEDLGMPEAVWLLEVERFGPCIVAIDAHGNSLYRR	soluble
MGSDKIHHHHHHMVNAAQAVMESSGQFHVEPEGVIRMSVPKAVGHFMIHPHLPEFLERYPKIDIQMLLEDRYVDLIDDGVDLALRITEQPPGGLMGRKLIDIDHLVCATPEYLSKHGTPNHPHDLKQHECIYLGEQASDSKWKFQQGNKSISVAVRGRYAANHTGVRLSAALQHLGIASLPYFVARHALQQGTLVQVLPDWYFKTYYSGGLWLLYPPTRHVQPKLSVLIQYLADKLAAEPTLFKLK	not soluble
MGSDKIHHHHHHMVNQGVDISVIAPQSITRHLLKGDPLLAVDSEKKIGNRSYHIYRPKYLTLGNAPRWIQNILEWLRYKVILRVITKHNLKPDAIYGHFWQNAFDIRKYCYKNGTPLFVACGEGDTALEDLVNSLSFAEKKRLSNAVTGVISVSSLNKRKCIEYGLSKAEDIVVLPNSVNSSLFSDINPLNRNSLGVFDDDFLIVFTGGFIHRKGASRLAAAIDKIGDKRIKVIFIGKPVPGDDATPHCNGIVHIGALEHDDIPSYLSAADVFCLPTLNEGCSNAIVEAIACGLPIISSNLPFNDDILDSSNALLVNPESVDDIASAIKQLMDNSDLRQKLAEGSKEKAKSLRIEFRAKKIIEFINRQMQK	not soluble
